The test deals with HA-tagged Glial Lazarillo (GLaz-HA) (Drosophila). Description: affinity purification on anti-HA beads and Western blot (bands of oligomers); GLaz-HA from larval brain extract concentrated on anti-HA beads, detected with anti-HA; the tetramers and dimers are destabilized into monomers by heat treatment or the reducing agent DTT. (In general: Immunoblotting shows a protein as a band on a membrane.)

The results in this text go back to article PMC8065144.

Where “and” joins values, the source holds several entries; their conditions need not be identical. Identical values can stand only once.

By stoichiometry N is commonly meant a count of units in the complex or per binding partner. Turning to “HA-tagged Glial Lazarillo (GLaz-HA) (ligand)”, the stoichiometry N is 4 and 2.
